US20240101668A1 (WUGEN, published 2024)
Residue numbers refer to the chain shown, from its start.

B1: Polypeptide No. 242 (scFv, V domains shown)
VH: QVQLVQSGAEVKKPGSSVKVSCKASGGTFSSATISWVRQAPGQGLEWMGGIIPMFGTANYAQKFQGRVTITADESTSTAYMELSSLRSEDTAVYYCARDAYGDSTWGQGTLVTVSS
VL: EIVMTQSPATLSVSPGERATLSCRASESVSSALAWYQQKPGQAPRLLIYGASTRATGIPARFSGSGSGTEFTLTISSLQSEDFAVYYCQQYGNSVTFGGGTKVEIKR
notes: scFv
B2: Polypeptide No. 218 (scFv, V domains shown)
VH: QVQLVQSGAEVKKPGASVKVSCKASGYSFTTHYMHWVRQAPGQGLEWMGIINPSGGSTRYAQKFQGRVTMTRDTSTSTVYMELSSLRSEDTAVYYCARGSSYYYYGVDVWGKGTTVTVSS
VL: DIQMTQSPSSLSASVGDRVTITCRASQSISTWLAWYQQKPGKAPKLLIYAASSLQSGVPSRFSGSGSGTDFTLTISSLQPEDFATYYCQQAISFPLTFGGGTKVEIKR
notes: scFv
B3: Polypeptide No. 213 (scFv, V domains shown)
VH: QVQLVQSGAEVKKPGASVKVSCKASGYTFSRYYMSWVRQAPGQGLEWMGWMNPNSGNTGYAQKFQGRVTMTRDTSTSTVYMELSSLRSEDTAVYYCARTRFAAQPHNWHFDLWGRGTLVTVSS
VL: DIQMTQSPSSLSASVGDRVTITCRASQSISSYLNWYQQKPGKAPKLLIYDASNLKTGVPSRFSGSGSGTDFTLTISSLQPEDFATYYCQQSYSTPLTFGPGTKVDIKR
notes: scFv
B4: Polypeptide No. 228 (scFv, V domains shown)
VH: QVQLVQSGAEVKKPGASVKVSCKASGGTFSSHAISWVRQAPGQGLEWMGWINPGSGGTNYAQKFQGRVTMTRDTSTSTVYMELSSLRSEDTAVYYCAKDSYDFWSGYYIDYWGQGTLVTVSS
VL: B3 VL with S30Y, S31T, Y32H, D50A, N53R, K55Q, T94F, L96F
notes: scFv
B5: Polypeptide No. 223 (scFv, V domains shown)
VH: QVQLVQSGAEVKKPGASVKVSCKASGYTFTNSFIHWVRQAPGQGLEWMGIINPSGGSTSYAQKFQGRVTMTRDTSTSTVYMELSSLRSEDTAVYYCAKALERRYYYGMDVWGQGTTVTVSS
VL: B3 VL with S28G, S31N, N34A, A51G, K55E, P100Q, D105E
notes: scFv
B6: Polypeptide No. 238 (scFv, V domains shown)
VH: QVQLVQSGAEVKKPGASVKVSCKASGYTFTIYYMHWVRQAPGQGLEWMGIINPSGGSTVYAQTFQGRVTMTRDTSTSTVYMELSSLRSEDTAVYYCARGIGSKGAFDIWGQGTMVTVSS
VL: not shown
notes: scFv
B7: Polypeptide No. 291 (scFv, V domains shown)
VH: B6 VH with I31S
VL: not shown
notes: scFv
B8: Polypeptide No. 207 (scFv, V domains shown)
VH: QVQLVQSGAEVKKPGASVKVSCKASGYTFTNYYMHWVRQAPGQGLEWMGWMNPNSGNTGYAQRFQGRVTMTRDTSTSTVYMELSSLRSEDTAVYYCAKSHYYYFYGMDVWGQGTTVTVSS
VL: DIQMTQSPSSLSASVGDRVTITCQASHDISKYLNWYQQKPGKAPKLLIYAASILQSGVPSRFSGSGSGTDFTLTISSLQPEDFATYYCQQSYSTPYTFGQGTKLEIKR
notes: scFv
B9: Polypeptide No. 215 (scFv, V domains shown)
VH: QVQLVQSGAEVKKPGASVKVSCKASGYTFTGYRMHWVRQAPGQGLEWMGWINPNSGGTNYAQKFQGRVTMTRDTSTSTVYMELSSLRSEDTAVYYCAKGGLDWRNWYFDLWGRGTLVTVSS
VL: B2 VL with S28G, T31S, W32Y, S53T, A91S, I92Y, F94T
notes: scFv
B10: Polypeptide No. 241 (scFv, V domains shown)
VH: B2 VH with S28T, T31R, M34V, R59S, G99S, S100Y, S101H, Y102H, V107M, K112Q
VL: B2 VL with T31N, W32Y, S56G, A91S, I92Y, F94T, L96W, G100Q
notes: scFv
B11: Polypeptide No. 222 (scFv, V domains shown)
VH: QVQLVQSGAEVKKPGASVKVSCKASGYSFTAYYMHWVRQAPGQGLEWMGIINPSGGSTSYAQKFQGRVTMTRDTSTSTVYMELSSLRSEDTAVYYCARVAGINGEMAYWGQGTLVTVSS
VL: B8 VL with Q24R, H27Q, K31N, N34A, I53T, S93R, L104V
notes: scFv
B12: Polypeptide No. 231 (scFv, V domains shown)
VH: QVQLVQSGAEVKKPGASVKVSCKASGYTFTSYYIHWVRQAPGQGLEWMGLINPSGGSTTYAQSFQGRVTMTRDTSTSTVYMELSSLRSEDTAVYYCARGLGWGVVVPAAELDYWGQGTLVTVSS
VL: B3 VL with S31T, D50A, K55Q, T56S, T94S
notes: scFv
B13: Polypeptide No. 229 (scFv, V domains shown)
VH: QVQLVQSGAEVKKPGASVKVSCKASGYTFTNYYMHWVRQAPGQGLEWMGIINPSGGSTSYAQKFQGRVTMTRDTSTSTVYMELSSLRSEDTAVYYCARGVGYSGYGADLWGRGTLVTVSS
VL: B8 VL with Q24R, H27Q, D28G, K31N, Y32S, N34A, I53S, Y92H, T94P
notes: scFv
B14: Polypeptide No. 219 (scFv, V domains shown)
VH: QVQLVQSGAEVKKPGASVKVSCKASGYTFTNYYMHWVRQAPGQGLEWMGIINPSSGSASYTQKLQGRVTMTRDTSTSTVYMELSSLRSEDTAVYYCARDRSTLVPLDYWGQGTLVTVSS
VL: DIQMTQSPSSLSASVGDRVTITCRASQGIRSELSWYQQKPGKAPKLLIYKASSLESGVPSRFSGSGSGTDFTLTISSLQPEDFATYYCLQHNSYPLTFGGGTKVEIKR
notes: scFv
B15: Polypeptide No. 235 (scFv, V domains shown)
VH: B11 VH with S28T, A31G, V99D, A100P, I102R, N103L, M106L, A107D
VL: EIVMTQSPATLSVSPGERATLSCRASQSVSSNLAWYQQKPGQAPRLLIYGASTRATGIPARFSGSGSGTEFTLTISSLQSEDFAVYYCQQYGSSPLTFGGGTKVEIKR
notes: scFv
B16: Polypeptide No. 212 (scFv, V domains shown)
VH: QVQLVQSGAEVKKPGSSVKVSCKASGYTFTGYYMHWVRQAPGQGLEWMGGIIPILGTANNAQKFQGRVTITADESTSTAYMELSSLRSEDTAVYYCARAPWGTFDYWGQGTLVTVSS
VL: EIVMTQSPATLSVSPGERATLSCRASQSVSSSQLAWYQQKPGQAPRLLIYDTSTRATGIPARFSGSGSGTEFTLTISSLQSEDFAVYYCQQYDNSLWTFGQGTRLEIKR
notes: scFv
B17: Polypeptide No. 233 (scFv, V domains shown)
VH: QVQLVQSGAEVKKPGASVKVSCKASGYTFTSYYLHWVRQAPGQGLEWIGVINPSGGSTTYAQRFQGRVTMTRDTSTSTVYMELSSLRSEDTAVYYCARGIGYGGYFDYWGQGTLVTVSS
VL: DIVMTQSPLSLPVTPGEPASISCRSSQSLLHSNGYNYLDWYLQKPGQSPQLLIYAASSLQSGVPDRFSGSGSGTDFTLKISRVEAEDVGVYYCMQGLRTPHTFGGGTKVEIKR
notes: scFv
B18: Polypeptide No. 240 (scFv, V domains shown)
VH: QVQLVQSGAEVKKPGASVKVSCKASGYTFTSYYMHWVRQAPGQGLEWMGIINPSSGSTTYALKFQGRVTMTRDTSTSTVYMELSSLRSEDTAVYYCARGLGKSAIDYWGQGTLVTVSS
VL: not shown
notes: scFv
B19: Polypeptide No. 208 (scFv, V domains shown)
VH: QVQLVQSGAEVKKPGASVKVSCKASGGTFSSRSISWVRQAPGQGLEWMGIINPSGGGTLYAQKFQGRVTMTRDTSTSTVYMELSSLRSEDTAVYYCAKDMDGWSDAFDIWGQGTTVTVSS
VL: EIVMTQSPATLSVSPGERATLSCRASQSLSNIYLAWYQQKPGQAPRLLIYDVSSRAAGIPARFSGSGSGTEFTLTISSLQSEDFAVYYCQQYATSPLTFGGGTKVEIKR
notes: scFv
B20: Polypeptide No. 243 (scFv, V domains shown)
VH: QVQLVQSGAEVKKPGSSVKVSCKASGGTFSSHAFNWVRQAPGQGLEWMGGISPMFGTPNYAQKFQGRVTITADESTSTAYMELSSLRSEDTAVYYCARAPDYGDDWYFDLWGRGTLVTVSS
VL: EIVMTQSPATLSVSPGERATLSCRASQTLTGGLLAWYQQKPGQAPRLLIYDTSSRAAGIPARFSGSGSGTEFTLTISSLQSEDFAVYYCHHYGSSPYTFGQGTKVEIKR
notes: scFv

Legend:
[1] = target: T1, huFLT3-M227 stably expressed on Ramos cells (human, UniProt P36888 27-993); assay: FACS on cells
T1 construct: whole, on cells; also called FLT3 Mutant
Description: (§1) For FLT3, Ramos cells were engineered to stably express either the huFLT3-T227 or huFLT3-M227 variant at >200,000 receptors per cell. Parental, huFLT3-T227, and huFLT3-M227 Ramos cell lines were stained with differing levels of CellTrace Violet Cell Proliferation Kit (ThermoFisher, cat. #C34557) to barcode each cell line. Barcoded Ramos cell lines were fixed with paraformaldehyde and incubated with myc-labeled scFv periplasmic extracts and a secondary anti-myc PE-conjugated monoclonal antibody. Appropriate positive and negative controls were used. Stained cells were analyzed by flow cytometry (CytoFLEX, Beckman Coulter, Inc.) and binding was assessed by change in PE mean fluorescence intensity (MFI) of the barcoded cell populations.

[2] = target: T2, huFLT3-T227 stably expressed on Ramos cells (human, UniProt P36888 27-993); assay: FACS on cells
T2 construct: whole, on cells; also called FLT3 WT
Description: as §1

| Binder | FACS geometric mean fold change over Jurkat parental [1] [fold] | FACS geometric mean fold change over Jurkat parental [2] [fold] |
| --- | --- | --- |
| B1 | > 30 | > 30 |
| B2 | 10 to 30 | 10 to 30 |
| B3 | 10 to 30 | 10 to 30 |
| B4 | > 30 | > 30 |
| B5 | > 30 | > 30 |
| B6 | > 30 | > 30 |
| B7 | > 30 | > 30 |
| B8 | 10 to 30 | 10 to 30 |
| B9 | 10 to 30 | 10 to 30 |
| B10 | 10 to 30 | 10 to 30 |
| B11 | > 30 | > 30 |
| B12 | > 30 | > 30 |
| B13 | > 30 | > 30 |
| B14 | 10 to 30 | 10 to 30 |
| B15 | > 30 | > 30 |
| B16 | 10 to 30 | 10 to 30 |
| B17 | > 30 | > 30 |
| B18 | > 30 | > 30 |
| B19 | 10 to 30 | 10 to 30 |
| B20 | 2 to 10 | 2 to 10 |
